According to PMC10746174:

Target: heme
Experiment: UV-vis spectroscopy, as-purified Soret peak (412 nm)
Settings: 50 µg of purified protein, as-purified (black trace); parent: est. 0.32; read off a plot

Substance: CcmF:6×His wild type (from UniProt P33927) W229A
- response: 0.2 Abs.

Substance: CcmF:6×His wild type (from UniProt P33927) Y231A
- response: 0.18 Abs.
